Source: patent publication US11906524B2, “Urea biosensors and uses thereof” (Duke University, priority 2015, dated 2024)
Residue numbers refer to the chain shown, from its start. Names may count otherwise.

B1: csUBP7 S30C: csUBP7 30C cysteine mutant (SEQ ID NO: 25), tested as Acrylodan and Badan conjugates (conjugate)
chain: MSSSESEKEKSEETIKVGILHSLSGTMSICEVSLKDAELMAIEEINNNGGVLGKKLEPIVEDGASDWPTFAEKAKKLLQKDKVAVIFGAWTSASRKAVLPVVEENNGLLFYPVQYEGLESSPNIFYMGAAPNQQIVPAVKWLFDNGKKRFYLLGSDYVFPRTANKIIKAYLKYLGGVVVGEEYTPLGHTDYSSVINKIKAAKPDVVFNTLNGDSNVAFFKQLKDAGIDANTLPVMSVSIAEEEIKGIGPEYLKGHLVTWNYFQSVDTPENKEFVEKYKKKYGEDRVTDDPIEAAYIGVYLWAKAVEKAGSTDVDKVREAAKGIEFNAPEGPVKIDGDNQHLYKTVRIGEILENGQIRELWKTNKPVKPDPYLKGYEWAQGLSEQGGSHHHHHH
modifications: Acrylodan or Badan conjugate; csUBP7_30C (30C substitution mutant with signal peptide replaced with M and a GGSHHHHHH at C-terminus, and also comprising a C89A substitution)
B2: csUBP7 T69C: csUBP7 69C cysteine mutant (SEQ ID NO: 27), tested as Acrylodan and Badan conjugates (conjugate)
chain: B1 chain with C30S, T69C
modifications: Acrylodan or Badan conjugate; csUBP7_69C (69C substitution mutant with signal peptide replaced with M and a GGSHHHHHH at C-terminus, and also comprising a C89A substitution)
B3: csUBP7 W90C: csUBP7 90C cysteine mutant (SEQ ID NO: 28), tested as Acrylodan and Badan conjugates (conjugate)
chain: B1 chain with C30S, W90C
modifications: Acrylodan or Badan conjugate; csUBP7_90C (90C substitution mutant with signal peptide replaced with M and a GGSHHHHHH at C-terminus, and also comprising a C89A substitution)
B4: csUBP7 T91C: csUBP7 91C cysteine mutant (SEQ ID NO: 29), tested as Acrylodan and Badan conjugates (conjugate)
chain: B1 chain with C30S, T91C
modifications: Acrylodan or Badan conjugate; csUBP7_91C (91C substitution mutant with signal peptide replaced with M and a GGSHHHHHH at C-terminus, and also comprising a C89A substitution)
B5: csUBP7 E116C: csUBP7 116C cysteine mutant (SEQ ID NO: 36), tested as Acrylodan and Badan conjugates (conjugate)
chain: B1 chain with C30S, E116C
modifications: Acrylodan or Badan conjugate; csUBP7_116C (116C substitution mutant with signal peptide replaced with M and a GGSHHHHHH at C-terminus, and also comprising a C89A substitution)
B6: csUBP7 Y157C: csUBP7 157C cysteine mutant (SEQ ID NO: 37), tested as Acrylodan and Badan conjugates (conjugate)
chain: B1 chain with C30S, Y157C
modifications: Acrylodan or Badan conjugate; csUBP7_157C (157C substitution mutant with signal peptide replaced with M and a GGSHHHHHH at C-terminus, and also comprising a C89A substitution)
B7: csUBP7 L186C: csUBP7 186C cysteine mutant (SEQ ID NO: 40), tested as Acrylodan and Badan conjugates (conjugate)
chain: B1 chain with C30S, L186C
modifications: Acrylodan or Badan conjugate; csUBP7_186C (186C substitution mutant with signal peptide replaced with M and a GGSHHHHHH at C-terminus, and also comprising a C89A substitution)
B8: csUBP7 N211C: csUBP7 211C cysteine mutant (SEQ ID NO: 41), tested as Acrylodan and Badan conjugates (conjugate)
chain: B1 chain with C30S, N211C
modifications: Acrylodan or Badan conjugate; csUBP7_211C (211C substitution mutant with signal peptide replaced with M and a GGSHHHHHH at C-terminus, and also comprising a C89A substitution)
B9: ctUBP6: urea-binding protein from Clostridium thermocellum, SEQ ID NO: 17 (protein)
chain: MVEEPVDNKPGTDTSAEDTIKVGILHSLSGTMAISEVSLKDAELMAIEEINQAGGLLGKKIEPVIEDGASDWPTFAEKAKKLLQNDKVATVFGCWTSASRKAVLPVFEENNGLLWYPVQYEGMESSPNIFYTGAAPNQQIVPAVEWLLENKGKRFFLLGSDYVFPRTANKIIKAQLSAIGGELIAEEYTPLGHTDYSTIVNKIKTAKPDVVFNTLNGDSNVAFFKQLKDAGITSEDITVCSVSVAEEEIRGIGAENIKGHLVSWNYYQTTDTPENKEFVEKYKSKYGSDRVTDDPIEAAYIAVHLWAEAVKKAGSFEVEKVKEAAKGLEFKAPEGLVKIEGENQHLWKPVRIGEVQEDGLIKEIWSTSEAVRPDPYLKTYDWAKGLSDGGSHHHHHH
modifications: ctUBP6 (with signal peptide replaced with M and a GGSHHHHHH at C-terminus)

Assay: Temperature- and urea-dependent fluorescence landscapes of fluorescent conjugates (Roche LightCycler)
Type: binding
Parameters: key: y, yes; n, no
Details: Acrylodan conjugate; fluorescent response to urea
Protocol: We constructed 20 single cysteine mutants in csUBP7, exploring 7 endosteric, 12 peristeric, and 1 allosteric position (FIG. 9). At each position we attached the Prodan-derived fluorophores Acrylodan and Badan, which differ by one methylene group in their thiol-reactive linker. The fluorescent responses of these conjugates was determined initially as a function of urea concentration and temperature (FIG. 10). […] The ligand dependence of the emission spectra shapes was determined for these conjugates (Table 8).
Determination of temperature- and ligand-dependent fluorescence landscapes. […] Urea concentrations were varied from 0-4.8 M in 20 mM KCl, 20 mM MOPS (pH 7.4). […] Temperatures were advanced in 1K steps.
(§1) Ratiometric analysis of urea binding. […] 2
(§2) For a single urea-binding site, the fractional saturation is given by
(§3) [formula] where [L] is the ligand (urea) concentration and Kd the dissociation constant, ^trueKd for ytrue.
To obtain the temperature dependence of the binding reaction, the Kd values of all the individually determined isotherms were fit the Gibbs-Hemholtz equation (Layton and Hellinga, 2010, Biochemistry, 49, 10831-41):
[formula] where ΔGb^•(T) is the standard free energy of binding at 1 M ligand at temperature T,
[formula] Δ^refHb^• and Δ^refSb^• the molar enthalpy and entropy of binding, respectively, at the reference temperature, Tref, and ΔCp,b the heat capacity of the binding reaction.
For B1, the Response was “y”. For B2, the Response was “n”. In the case of B3, the Response is reported as “y”. For B4, the Response was “n”. In the case of B5, the Response is reported as “y”. In the case of B6, the Response is reported as “y”. For B7, the Response was “y”. In the case of B8, the Response is reported as “y”.

Same assay, conditions: Badan conjugate; fluorescent response to urea
For B1, the Response was “y”. In the case of B2, the Response is reported as “y”. For B3, the Response was “y”. With B4 the Response was “y”. With B5 the Response was “y”. In the case of B6, the Response is reported as “y”. In the case of B7, the Response is reported as “n”. In the case of B8, the Response is reported as “y”.

Assay: Urea titration of emission intensity spectra (Nanodrop3300) with ratiometric analysis, singly labeled conjugates
Type: binding
Parameters: key to Acrylodan Intensity / Badan Intensity: +, increases in response to urea; −, decreases; 0, no change; key to Badan Dipoles / Acrylodan Dipoles: blue, (maxima <500 nm); g, green (maxima >500 nm); b/g, mixed population; key to Acrylodan Shape / Badan Shape: m, monochromatic; d, dichromatic (i.e. spectral shape changes); 0, no change
Details: csUBP7 Acrylodan conjugate; emission intensity change on urea
Source text: Determination of emission intensity spectra.
as §1, §2, §3
[formula] where ^appIλ2 and ^satIλ2 are the emission intensities of the monochromatic signal at wavelength λ2 of the ligand-free and ligand-bound protein, respectively.
For B1, the “Acrylodan Intensity” value was “+”. In the case of B3, the “Acrylodan Intensity” value is reported as “+”. With B4 the “Acrylodan Intensity” value was “−”. For B5, the “Acrylodan Intensity” value was “+”. In the case of B6, the “Acrylodan Intensity” value is reported as “+”. With B7 the “Acrylodan Intensity” value was “−”.

Same assay, conditions: csUBP7 Acrylodan conjugate; emission spectrum shape change on urea
For B1, the “Acrylodan Shape” value was “d”. With B2 the “Acrylodan Shape” value was 0. For B3, the “Acrylodan Shape” value was “d”. In the case of B4, the “Acrylodan Shape” value is reported as “m”. With B5 the “Acrylodan Shape” value was “d”. For B6, the “Acrylodan Shape” value was “m”. With B7 the “Acrylodan Shape” value was “d”. For B8, the “Acrylodan Shape” value was 0.

Same assay, conditions: csUBP7 Acrylodan conjugate; estimated change in populations of major emission bands
In the case of B1, the “Acrylodan Dipoles” value is reported as “b/g→b”. For B2, the “Acrylodan Dipoles” value was “g (g, green (maxima >500 nm))”. In the case of B3, the “Acrylodan Dipoles” value is reported as “b/g→b”. For B4, the “Acrylodan Dipoles” value was “b/g”. For B5, the “Acrylodan Dipoles” value was “b/g→g”. For B7, the “Acrylodan Dipoles” value was “b/g→g”. In the case of B8, the “Acrylodan Dipoles” value is reported as “g (g, green (maxima >500 nm))”.

Same assay, conditions: csUBP7 Acrylodan conjugate; urea; read-out: Acrylodan ^trueKd
B1 showed a Kd of 5.2 mM. With B3 the Kd was 7.1 mM. B4 showed a Kd of 0.7 mM. Work on B5 yielded a Kd of 29 mM. B6 gave a Kd of 3.4 mM.

Same assay, conditions: csUBP7 Badan conjugate; emission intensity change on urea
For B1, the “Badan Intensity” value was “+”. With B2 the “Badan Intensity” value was “−”. In the case of B3, the “Badan Intensity” value is reported as “+”. For B4, the “Badan Intensity” value was “−”. With B5 the “Badan Intensity” value was “−”. With B6 the “Badan Intensity” value was “+”. In the case of B8, the “Badan Intensity” value is reported as “+”.

Same assay, conditions: csUBP7 Badan conjugate; emission spectrum shape change on urea
For B1, the “Badan Shape” value was “d”. For B2, the “Badan Shape” value was “d”. With B3 the “Badan Shape” value was “m”. With B4 the “Badan Shape” value was “d”. For B5, the “Badan Shape” value was “m”. For B6, the “Badan Shape” value was “m”. In the case of B7, the “Badan Shape” value is reported as 0. With B8 the “Badan Shape” value was “d”.

Same assay, conditions: csUBP7 Badan conjugate; estimated change in populations of major emission bands
In the case of B1, the “Badan Dipoles” value is reported as “g→b”. For B2, the “Badan Dipoles” value was “g→b/g”. With B3 the “Badan Dipoles” value was “b/g”. For B4, the “Badan Dipoles” value was “b/g→b”. In the case of B5, the “Badan Dipoles” value is reported as “b/g”. For B6, the “Badan Dipoles” value was “b/g”. With B7 the “Badan Dipoles” value was “g (g, green (maxima >500 nm))”. In the case of B8, the “Badan Dipoles” value is reported as “g→b/g”.

Same assay, conditions: csUBP7 Badan conjugate; urea; read-out: Badan ^trueKd
B1 showed a Kd of 0.3 mM. Work on B2 yielded a Kd of 0.007 mM. For B3, the Kd was 8.5 mM. B4 showed a Kd of 0.6 mM. B5 gave a Kd of 10 mM. For B6, the Kd was 16 mM. Work on B8 yielded a Kd of 15 mM.

Assay: Thermal stability of purified UBP candidates (SYPRO Orange thermal melt, Roche LightCycler)
Type: physicochemical
Details: apo-protein; SYPRO Orange monitors unfolded protein
Protocol: The urea-binding properties of these leads were determined experimentally (Table 4). These experiments comprise four successive steps: • 1. Synthetic gene construction. […] Heterologous protein expression of the homologues in E. coli. […] Verification of urea binding.
Analysis of urea-binding properties using thermal melts.
In the case of B9, the “Thermostability ^apoTm” value is reported as 89 °C.
